Experimental data reported in article PMC11387445, “L-Lactate dehydrogenase from Cyanidioschyzon merolae shows high catalytic efficiency for pyruvate reduction and is inhibited by ATP” (Plant Molecular Biology, 2024).

Legend:
CmLDH1 [1] = biological target: T1, CmLDH1 (Cyanidioschyzon merolae, UniProt M1V6D8); experiment: NADH oxidation at […] nm, relative activity; assay type: biochemical; details: activation; 5 mM FBP, 0.20 mM pyruvate, 0.05 mM NADH, pH 7.0, 57 °C
T1 construct: gene CYME_CMA145C; full length, 354 residues; E. coli BL21(DE3)
T1 sequence (M1V6D8 1-354): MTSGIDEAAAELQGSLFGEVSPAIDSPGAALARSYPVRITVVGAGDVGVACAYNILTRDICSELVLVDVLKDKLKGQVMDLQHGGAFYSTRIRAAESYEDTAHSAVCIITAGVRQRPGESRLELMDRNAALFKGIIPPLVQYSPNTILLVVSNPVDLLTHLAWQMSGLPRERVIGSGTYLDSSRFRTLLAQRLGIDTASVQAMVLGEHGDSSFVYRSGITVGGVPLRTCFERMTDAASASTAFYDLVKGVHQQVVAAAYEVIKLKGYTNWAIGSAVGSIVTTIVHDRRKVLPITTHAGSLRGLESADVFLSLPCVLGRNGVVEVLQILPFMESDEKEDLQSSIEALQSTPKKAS

CmLDH1 [2] = biological target: T1, CmLDH1; experiment: NADH oxidation at […] nm, relative activity; assay type: biochemical; details: inhibition, 0.20 mM pyruvate, 0.05 mM NADH, pH 7.0, 57 °C
purified protein [3] = substrate: NC(=O)C1=CN([C@@H]2O[C@H](COP(=O)(O)OP(=O)(O)OC[C@H]3O[C@@H](n4cnc5c(N)ncnc54)[C@H](O)[C@@H]3O)[C@@H](O)[C@H]2O)C=CC1; experiment: purified protein; assay type: biochemical, Cyanidioschyzon merolae; details: 2 mM sodium pyruvate, pH 4.5 (optimum), 57 °C, no effector
purified protein [4] = substrate: CC(=O)C(=O)O; experiment: purified protein; assay type: biochemical, Cyanidioschyzon merolae; details: 0.15 mM NADH, pH 4.5 (optimum), 57 °C, no effector

O=P(O)(O)OC[C@H]1OC(O)(COP(=O)(O)O)[C@@H](O)[C@@H]1O (stereo partly drawn) [FBP]
relative activity at 5 mM (CmLDH1 [1]): 1.2 fold

Nc1ncnc2c1ncn2[C@@H]1O[C@H](COP(=O)(O)OP(=O)(O)OP(=O)(O)O)[C@@H](O)[C@H]1O [ATP]
relative activity (CmLDH1 [2]; mixed inhibitor for NADH): ATP and ADP (particularly ATP) decreased CmLDH1 activity

Nc1ncnc2c1ncn2[C@@H]1O[C@H](COP(=O)(O)OP(=O)(O)O)[C@@H](O)[C@H]1O [ADP]
relative activity (CmLDH1 [2]): ATP and ADP (particularly ATP) decreased CmLDH1 activity

B1: CmLDH1 (Cyanidioschyzon merolae strain 10D) (protein)
chain: MTSGIDEAAAELQGSLFGEVSPAIDSPGAALARSYPVRITVVGAGDVGVACAYNILTRDICSELVLVDVLKDKLKGQVMDLQHGGAFYSTRIRAAESYEDTAHSAVCIITAGVRQRPGESRLELMDRNAALFKGIIPPLVQYSPNTILLVVSNPVDLLTHLAWQMSGLPRERVIGSGTYLDSSRFRTLLAQRLGIDTASVQAMVLGEHGDSSFVYRSGITVGGVPLRTCFERMTDAASASTAFYDLVKGVHQQVVAAAYEVIKLKGYTNWAIGSAVGSIVTTIVHDRRKVLPITTHAGSLRGLESADVFLSLPCVLGRNGVVEVLQILPFMESDEKEDLQSSIEALQSTPKKAS
notes: full length, 354 residues; E. coli BL21(DE3)
K0.5 (purified protein [3]): 0.011 ± 0.0006 mM
kcat (purified protein [3]): 324 ± 6 s⁻¹
kcat/Km (purified protein [3]): 2.95e+07 ± 1.05e+06 M⁻¹ s⁻¹
K0.5 (purified protein [4]): 0.13 ± 0.005 mM
kcat (purified protein [4]): 314 ± 3 s⁻¹
kcat/Km (purified protein [4]): 2.46e+06 ± 75000 M⁻¹ s⁻¹
